In patent US20240409620A1 (CENTER FOR EXCELLENCE IN MOLECULAR CELL SCIENCE CHINESE …, published 2024):

Key:
[1] = target: RSV/A/A2 fusion protein F on the virus (respiratory syncytial virus RSV/A/A2, UniProt P03420 26-574); assay: cell-based or functional assay
[2] = target: T1, RSV/A/A2 pre-fusion F protein (respiratory syncytial virus RSV/A/A2, UniProt P03420 26-109); assay: BLI (Octet RED96), antibody captured on AHC sensor; reference MEDI8897
T1 construct: also called RSV A2 pre-fusion F protein; pre-F of RSV type A

[3] = target: T2, RSV/B/B9320 pre-fusion F protein (respiratory syncytial virus RSV/B/B9320); assay: as above
T2 construct: also called pre-F of RSV type B; recombinant DS-Cav1

[4] = target: T1, RSV/A/A2 pre-fusion F protein; assay: BLI (Octet RED96), antibody captured on AHC sensor; reference Palivizumab
[5] = target: T2, RSV/B/B9320 pre-fusion F protein; assay: as above

B1: 4F1En1 (VH-S75R) (antibody, V domains shown)
VH: QVQLVESGGGVVQPGRSLRLSCAASGFSFYSYSVHWVRQAPGKGLEWVADVVYDGNHQHYTDSVKGRFTISRDTRKNTVYLQMGSLRAEDTALYYCTARSLVITLAGAGRDDYWGQGTTVTVSS
VL: DIVMTQSPLSLPVTPGEPASISCRSSQSLLHSNGYTYLDWYLQKPGQSPQLLIFLGSSRASGVPDRFSGSGSGTDFTLKISRVEAEDVGVYYCVQDLQTSLTFGGGTKLEIKR
notes: It is a human IgG captured through Fc
[1]
  IC50 against RSV/A2, fold lower than palivizumab: 62 fold
  neutralization potency for RSV/A/A2 strain, fold against 4F1-WT: 3 times
[2]
  fold higher affinity compared to MEDI8897: ≥ 10 fold
[3]
  fold higher binding affinity compared to MEDI8897: ≥ 100 fold
[4]
  fold higher affinity compared to PVZ: ≥ 10 fold
[5]
  fold higher binding affinity compared to PVZ: ≥ 100 fold
